# From PMC10033410 (Nature, 2023)
# Molecular target: T1, human APOBEC3G (human, UniProt Q9HC16 1-384)
# T1 construct: also called A3G; hA3G; not shown: Strep-tag, C-terminal, kept
# Assay: cryo-EM structure; single-particle cryo-EM of the co-expressed, co-purified complex (SEC peak fraction, 1.9 μM; 30 mM HEPES, 150 mM NaCl, 5% glycerol, 1 mM TCEP); co-purified insect-cell ssRNA between A3G and Vif; monomer map 2.7 Å, dimer states 1, 1' and 2
# Settings: both partners purified
# T1 sequence (Q9HC16 whole entry): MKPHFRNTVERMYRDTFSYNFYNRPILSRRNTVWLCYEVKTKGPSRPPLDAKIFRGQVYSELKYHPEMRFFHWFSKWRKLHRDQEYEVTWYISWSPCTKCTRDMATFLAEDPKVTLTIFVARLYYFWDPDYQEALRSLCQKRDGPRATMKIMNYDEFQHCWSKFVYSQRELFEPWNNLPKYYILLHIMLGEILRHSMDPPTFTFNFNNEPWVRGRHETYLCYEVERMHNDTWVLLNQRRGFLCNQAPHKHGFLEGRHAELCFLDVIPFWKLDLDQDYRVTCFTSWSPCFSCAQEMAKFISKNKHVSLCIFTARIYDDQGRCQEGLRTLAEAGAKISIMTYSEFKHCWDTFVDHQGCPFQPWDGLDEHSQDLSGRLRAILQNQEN
binder,measurement,value
"HIV-1 HXB2 Vif (natural protein, also called Vif_(HXB2)) not shown",binding result,binds
